US6667052B2, “Transdermal delivery system” (priority 1997, dated 2003)
Entries after “also recorded” stand apart in the source; their conditions may differ. Counter-ions that a name gives are not always drawn. Like-named read-outs stand apart in the source and are kept apart here.

How the values were obtained:
[1] = for applied insulin remained in the cylinder: after 3 hours
Description: Careful attention was paid that the liquid has covered the entire skin area in the cylinder and that no leaking has occurred.

[2] = tested on: rats (Sprague-Dawley strain); experiment: In-vivo evaluation of dermally-applied insulin with oxidant pretreatment: plasma glucose monitoring; design: species or system rat
[3] = tested on: non-fasted rats (Sprague-Dawley strain); experiment: In-vivo evaluation of dermally-applied insulin after diethyl maleate (DEM) pretreatment: plasma glucose; design: species or system rat; settings: FIG. 3
Method: Two non-fasted locally-grown rats (Sprague-Dawley strain) were anesthetized (15 mg/ml pentobarbital sodium, 0.2-0.3 ml i.p.). The rats were placed on their back, the abdominal hair was trimmed off, and then the skin was washed gently with distilled water. The animals were maintained with 0.1 ml pentobarbital 15 mg/ml solution to keep them continuously asleep during the experiment. Diethyl maleate, a glutathion depleting agent, was injected intraperitoneally (0.5 ml, 20% v/v ethanolic solution) to one rat only.
Blood sampling and glucose measurement were performed as described in example 5.

[4] = control rats not pretreated with iodine, dermal insulin
[5] = iodine-pretreated skin exposed for 2 hours to insulin; FIG. 9B
Method: The method was performed according to Wroblewski et al (see above) using a reverse phase column (Vydac C18, 250×4.6 mm, 5? m), and a diodearray detector.

GSH = settings: iodine 0.5% to 10% applied; preliminary experiments, FIG. 10

insulin: human insulin, applied as Humulin R solution for injection, 0.5 ml equivalent to 50 IU
applied insulin remained in the cylinder ([1]; both control and iodine-treated groups): about 77%
applied insulin remained in the cylinder ([1]; control group (first value)): 76.0±6.6%
applied insulin remained in the cylinder ([1]; iodine-treated group): 77.3±7.8%
insulin quantities in the open wells ([1]; initial in vivo studies, insulin-containing wells on rat abdominal skin, no oxidant): significantly decreased
plasma/blood glucose levels ([2]; dermal insulin 50 IU, control rats without oxidant pretreatment): no reduction; also recorded: not influenced; also recorded: almost the same levels with no change
plasma glucose ([3]; rat without DEM, 50 IU Humulin R dermally): decreased relatively slower
plasma insulin levels [4]: No elevation
insulin form found in skin extract (HPLC) [5]: parent insulin was accumulated quantitatively

II [iodine]
iodine concentration at which minimum level of GSH is obtained (GSH): about 2%

CCOC(=O)/C=C\C(=O)OCC [DEM, Diethyl maleate]
plasma glucose ([3]; DEM 0.5 ml 20% v/v ethanolic solution i.p., then 50 IU Humulin R dermally): abrupt reduction

OO [hydrogen peroxide]
plasma glucose levels ([2]; Example 6: 3 hours oxidant pretreatment (5% silver protein, 0.01% potassium permangnate, 9% hydrogen peroxide or povidone-iodine), then 50 IU Humulin R, FIG. 2): No glucose reduction
